Assay results: patent US20100167357A1 (CELLECTIS, published 2010)

Key:
[1] = target: the molecule itself; test: analytical ultracentrifugation of the individually expressed protein (monomer plus higher aggregates seen)
Protocol: To check the oligomeric status of the purified designed enzymes, their size profiles was measured by analytical ultracentrifugation (FIG. 6). In the case of individually-expressed A1, A2, B3 and B4 proteins, the appearance of the expected monomeric enzyme was observed. However, higher molecular weight aggregates were also detected, including trimers and tetramers (FIG. 6B; only KTG-A2 and QAN-B3 are shown, although similar results were obtained with the other designs). Therefore the designed enzymes were indeed unable to homodimerise, and this may have affected their stability and aggregation properties during purification.

M3 E8K K96E = target: T1, M3 E8K K96E
T1 chain: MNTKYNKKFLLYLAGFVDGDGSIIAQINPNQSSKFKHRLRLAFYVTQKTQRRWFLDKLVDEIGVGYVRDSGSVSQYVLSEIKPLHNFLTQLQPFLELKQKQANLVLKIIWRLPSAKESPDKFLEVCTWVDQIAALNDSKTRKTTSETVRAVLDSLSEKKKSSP

[2] = target: T2, R51D RAG1.10.3 cutter (M3 R51D)
T2 chain: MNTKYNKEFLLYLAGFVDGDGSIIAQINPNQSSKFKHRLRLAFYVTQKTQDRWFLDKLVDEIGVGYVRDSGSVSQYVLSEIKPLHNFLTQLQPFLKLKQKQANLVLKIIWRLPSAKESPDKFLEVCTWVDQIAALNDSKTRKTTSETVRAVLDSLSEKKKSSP

[3] = target: T3, D137R RAG1.10.3 cutter (M3 D137R)
T3 chain: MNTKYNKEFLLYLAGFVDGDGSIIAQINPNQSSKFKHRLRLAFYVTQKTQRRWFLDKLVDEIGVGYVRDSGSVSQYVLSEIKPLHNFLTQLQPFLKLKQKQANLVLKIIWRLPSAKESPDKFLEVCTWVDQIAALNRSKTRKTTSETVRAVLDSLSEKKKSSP

M3 K7E K96E = target: T4, M3 K7E K96E
T4 chain: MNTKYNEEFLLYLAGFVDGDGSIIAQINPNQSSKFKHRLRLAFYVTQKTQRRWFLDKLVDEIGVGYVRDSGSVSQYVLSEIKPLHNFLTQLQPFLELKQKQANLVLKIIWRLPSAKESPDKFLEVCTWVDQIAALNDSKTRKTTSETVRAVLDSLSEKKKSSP

M3 E8K E61R = target: T5, M3 E8K E61R
T5 chain: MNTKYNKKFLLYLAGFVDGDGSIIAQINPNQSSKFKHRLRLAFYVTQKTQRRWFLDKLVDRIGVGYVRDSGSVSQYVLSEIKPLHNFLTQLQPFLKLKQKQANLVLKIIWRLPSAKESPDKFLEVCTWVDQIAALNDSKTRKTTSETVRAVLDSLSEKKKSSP

M3 K7E E61R = target: T6, M3 K7E E61R
T6 chain: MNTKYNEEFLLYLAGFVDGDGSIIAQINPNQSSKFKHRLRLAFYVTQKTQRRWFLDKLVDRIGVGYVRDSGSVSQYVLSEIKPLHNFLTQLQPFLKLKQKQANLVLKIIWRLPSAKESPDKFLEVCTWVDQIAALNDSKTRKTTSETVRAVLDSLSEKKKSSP

[4] = target: T7, QAN-B3 (QAN with K7E, F54G, L58M, K96E), His tag removed, co-expressed from pCDFDuet1
T7 chain: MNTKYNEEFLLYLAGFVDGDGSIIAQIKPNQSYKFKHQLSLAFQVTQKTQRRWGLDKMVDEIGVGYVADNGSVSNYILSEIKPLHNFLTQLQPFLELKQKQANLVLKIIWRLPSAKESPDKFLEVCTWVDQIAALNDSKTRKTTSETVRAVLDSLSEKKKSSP

[5] = target: T8, KTG-B3 (KTG with the B3 interface: K7E, F54G, L58M, K96E)
T8 chain: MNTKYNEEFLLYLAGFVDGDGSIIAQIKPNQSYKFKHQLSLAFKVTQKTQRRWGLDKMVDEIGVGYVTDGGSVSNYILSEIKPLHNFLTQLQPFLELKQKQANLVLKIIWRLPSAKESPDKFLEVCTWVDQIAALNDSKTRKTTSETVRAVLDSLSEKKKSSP

B1: QAN-B4 (QAN with the B4 interface: B3 mutations K7E, F54G, L58M, K96E plus Glycine at position 97) (enzyme)
chain: MANTKYNEEFLLYLAGFVDGDGSIIAQIKPNQSYKFKHQLSLTFQVTQKTQRRWGLDKMVDEIGVGYVADNGSVSNYILSEIKPLHNFLTQLQPFLEGKQKQANLVLKIIEQLPSAKESPDKFLEVCTWVDQIAALNDSKTRKTTSETVRAVLDSLSEKKKSSPAAALEHHHHHH
notes: Purified by His tag when expressed alone
binding result [1]: no binding

B2: M2 K7E E61R (protein)
chain: MNTKYNEEFLLYLAGFVDGDGSIIAQIKPRQSNKFKHQLSLAFAVTQKTQRRWFLDKLVDRIGVGYVYDSGSVSDYRLSEIKPLHNFLTQLQPFLKLKQKQANLVLKIIWRLPSAKESPDKFLEVCTWVDQIAALNDSKTRKTTSETVRAVLDSLSEKKKSSP
cleavage of the RAG1.10 target, yeast screening assay (OH1) (M3 E8K K96E): They have a strong cleavage activity toward the RAG1.10 target equivalent to the M2/M3 heterodimer activity, while they display almost non detectable homodimeric activities.

B3: D137R RAG1.10.2 cutter (M2 D137R) (protein)
chain: MNTKYNKEFLLYLAGFVDGDGSIIAQIKPRQSNKFKHQLSLAFAVTQKTQRRWFLDKLVDEIGVGYVYDSGSVSDYRLSEIKPLHNFLTQLQPFLKLKQKQANLVLKIIWRLPSAKESPDKFLEVCTWVDQIAALNRSKTRKTTSETVRAVLDSLSEKKKSSP
cleavage of the RAG1.10 target, direct repeat recombination (LacZ) assay in yeast [2]: leads also to the formation of an obligatory heterodimer, which is yet less active than the precedent one on the RAG1.10 target

B4: R51D RAG1.10.2 cutter (M2 R51D) (protein)
chain: MNTKYNKEFLLYLAGFVDGDGSIIAQIKPRQSNKFKHQLSLAFAVTQKTQDRWFLDKLVDEIGVGYVYDSGSVSDYRLSEIKPLHNFLTQLQPFLKLKQKQANLVLKIIWRLPSAKESPDKFLEVCTWVDQIAALNDSKTRKTTSETVRAVLDSLSEKKKSSP
cleavage of the palindromic RAG1.10.2 target, direct repeat recombination (LacZ) assay in yeast: no cleavage of the RAG1.10.2 and RAG1.10.3 targets was visible
cleavage of the RAG1.10 target, direct repeat recombination (LacZ) assay in yeast [3]: resulted in an efficient cleavage of the RAG1.10 target while no cleavage of the RAG1.10.2 and RAG1.10.3 targets was visible

B5: M2 E8K E61R (protein)
chain: MNTKYNKKFLLYLAGFVDGDGSIIAQIKPRQSNKFKHQLSLAFAVTQKTQRRWFLDKLVDRIGVGYVYDSGSVSDYRLSEIKPLHNFLTQLQPFLKLKQKQANLVLKIIWRLPSAKESPDKFLEVCTWVDQIAALNDSKTRKTTSETVRAVLDSLSEKKKSSP
cleavage of the RAG1.10 target, yeast screening assay (OH2) (M3 K7E K96E): They have a strong cleavage activity toward the RAG1.10 target equivalent to the M2/M3 heterodimer activity, while they display almost non detectable homodimeric activities.

B6: M2 K7E K96E (protein)
chain: MNTKYNEEFLLYLAGFVDGDGSIIAQIKPRQSNKFKHQLSLAFAVTQKTQRRWFLDKLVDEIGVGYVYDSGSVSDYRLSEIKPLHNFLTQLQPFLELKQKQANLVLKIIWRLPSAKESPDKFLEVCTWVDQIAALNDSKTRKTTSETVRAVLDSLSEKKKSSP
cleavage of the RAG1.10 target, yeast screening assay (OH3) (M3 E8K E61R): They have a strong cleavage activity toward the RAG1.10 target equivalent to the M2/M3 heterodimer activity, while they display almost non detectable homodimeric activities.

B7: M2 E8K K96E (protein)
chain: MNTKYNKKFLLYLAGFVDGDGSIIAQIKPRQSNKFKHQLSLAFAVTQKTQRRWFLDKLVDEIGVGYVYDSGSVSDYRLSEIKPLHNFLTQLQPFLELKQKQANLVLKIIWRLPSAKESPDKFLEVCTWVDQIAALNDSKTRKTTSETVRAVLDSLSEKKKSSP
cleavage of the RAG1.10 target, yeast screening assay (OH4) (M3 K7E E61R): They have a strong cleavage activity toward the RAG1.10 target equivalent to the M2/M3 heterodimer activity, while they display almost non detectable homodimeric activities.

B8: KTG-A2 (KTG with K7R, E8R, F54W, E61R, K96R, L97F) (enzyme)
chain: MNTKYNRRFLLYLAGFVDGDGSIIAQIKPNQSYKFKHQLSLAFKVTQKTQRRWWLDKLVDRIGVGYVTDGGSVSNYILSEIKPLHNFLTQLQPFLRFKQKQANLVLKIIWRLPSAKESPDKFLEVCTWVDQIAALNDSKTRKTTSETVRAVLDSLSEKKKSSP
notes: Designed monomer; Expressed with a His tag from pET-series plasmid pCLS1211
binding result [1]: no binding
in vitro cleavage of linearized plasmid DNA targets (agarose gel) [4]: clear specific cleavage of the heterodimer DNA target (gtt/agg) and barely of the homodimeric targets (cct/agg and gtt/aac; FIG. 7A) was observed

B9: QAN-A1 (QAN with the A1 interface: K7R, E8R, E61R, K96R, L97F; Phe kept at position 54) (enzyme)
chain: MNTKYNRRFLLYLAGFVDGDGSIIAQIKPNQSYKFKHQLSLAFQVTQKTQRRWFLDKLVDRIGVGYVADNGSVSNYILSEIKPLHNFLTQLQPFLRFKQKQANLVLKIIWRLPSAKESPDKFLEVCTWVDQIAALNDSKTRKTTSETVRAVLDSLSEKKKSSP
notes: as for B1
binding result [1]: no binding
in vitro cleavage of linearized plasmid DNA targets (agarose gel) [5]: specific cleavage of the heterodimer, but at reduced level compared to the KTG-A2/QAN-B3 combination

B10: KTG-B3 (KTG with the B3 interface: K7E, F54G, L58M, K96E) (enzyme)
chain: MNTKYNEEFLLYLAGFVDGDGSIIAQIKPNQSYKFKHQLSLAFKVTQKTQRRWGLDKMVDEIGVGYVTDGGSVSNYILSEIKPLHNFLTQLQPFLELKQKQANLVLKIIWRLPSAKESPDKFLEVCTWVDQIAALNDSKTRKTTSETVRAVLDSLSEKKKSSP
notes: as for B1
binding result [1]: no binding

B11: QAN-B3 (QAN with K7E, F54G, L58M, K96E), individually expressed and purified (enzyme)
chain: MNTKYNEEFLLYLAGFVDGDGSIIAQIKPNQSYKFKHQLSLAFQVTQKTQRRWGLDKMVDEIGVGYVADNGSVSNYILSEIKPLHNFLTQLQPFLELKQKQANLVLKIIWRLPSAKESPDKFLEVCTWVDQIAALNDSKTRKTTSETVRAVLDSLSEKKKSSP
notes: Designed monomer; His-tagged form from pET-series plasmid pCLS1214, purified on a nickel column
binding result [1]: no binding

B12: D137R RAG1.10.3 cutter (M3 D137R) (protein)
chain: MNTKYNKEFLLYLAGFVDGDGSIIAQINPNQSSKFKHRLRLAFYVTQKTQRRWFLDKLVDEIGVGYVRDSGSVSQYVLSEIKPLHNFLTQLQPFLKLKQKQANLVLKIIWRLPSAKESPDKFLEVCTWVDQIAALNRSKTRKTTSETVRAVLDSLSEKKKSSP
cleavage of the palindromic RAG1.10.3 target, direct repeat recombination (LacZ) assay in yeast: no cleavage of the RAG1.10.2 and RAG1.10.3 targets was visible
